Residue numbers refer to the chain shown, from its start.

What all share (assay): cleavage_in_vitro
Data set [1] concerns T1, SphI-HF K100A (Streptomyces phaeochromogenes).
T1 sequence: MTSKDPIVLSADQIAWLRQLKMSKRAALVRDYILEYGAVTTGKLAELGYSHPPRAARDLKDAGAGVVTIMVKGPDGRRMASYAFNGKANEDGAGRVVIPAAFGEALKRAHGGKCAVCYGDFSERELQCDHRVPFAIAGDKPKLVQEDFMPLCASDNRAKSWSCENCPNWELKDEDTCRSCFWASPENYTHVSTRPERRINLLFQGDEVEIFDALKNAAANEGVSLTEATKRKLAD
The settings on record: NEB4, 37 C, Mg2+.

Data set [2] deals with T2, SbfI (Streptomyces species Bf-61?).
T2 sequence: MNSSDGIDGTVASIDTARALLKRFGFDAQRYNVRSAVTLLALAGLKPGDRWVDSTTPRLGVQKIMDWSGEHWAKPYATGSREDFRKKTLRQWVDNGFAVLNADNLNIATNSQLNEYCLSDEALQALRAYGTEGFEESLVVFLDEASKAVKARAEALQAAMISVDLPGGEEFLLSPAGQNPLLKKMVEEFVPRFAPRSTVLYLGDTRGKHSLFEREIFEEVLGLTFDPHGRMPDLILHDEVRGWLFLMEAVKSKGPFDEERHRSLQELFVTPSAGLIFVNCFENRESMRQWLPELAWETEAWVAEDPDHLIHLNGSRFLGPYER
As to conditions: NEB4, 37 C, Mg2+.

Data set [3] has as its system T3, SspI (Sphaerotilus species).
T3 sequence: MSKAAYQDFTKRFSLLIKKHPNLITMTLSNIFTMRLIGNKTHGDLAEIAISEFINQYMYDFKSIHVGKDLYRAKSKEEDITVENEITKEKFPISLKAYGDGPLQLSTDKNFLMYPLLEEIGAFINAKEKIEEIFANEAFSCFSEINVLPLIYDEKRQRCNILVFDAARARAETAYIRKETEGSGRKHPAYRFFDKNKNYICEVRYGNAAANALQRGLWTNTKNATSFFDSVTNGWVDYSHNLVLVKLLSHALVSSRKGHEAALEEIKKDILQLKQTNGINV
The settings on record: NEB4, 37 C, Mg2+.

Data set [4] has as its target T4, PstI (Providencia stuartii 164) (UniProt P00640).
T4 sequence: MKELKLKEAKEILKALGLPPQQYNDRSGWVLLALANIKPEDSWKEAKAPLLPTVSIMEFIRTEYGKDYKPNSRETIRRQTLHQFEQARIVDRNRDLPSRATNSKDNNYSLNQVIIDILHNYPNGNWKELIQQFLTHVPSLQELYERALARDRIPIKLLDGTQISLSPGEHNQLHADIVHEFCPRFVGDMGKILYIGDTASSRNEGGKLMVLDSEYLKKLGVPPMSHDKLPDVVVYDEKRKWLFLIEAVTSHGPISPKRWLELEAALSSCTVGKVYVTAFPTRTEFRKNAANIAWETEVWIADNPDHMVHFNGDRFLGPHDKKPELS
As to conditions: NEB4, 37 C, Mg2+.

In data set [5] the target is EcoRI (Escherichia coli RY13) (UniProt P00642). As to conditions: NEB4, 37 C, Mg2+; 250 in NEB1 and NEB3.
For data set [6], the system named is BstXI. The settings on record: NEB4, 55 C, Mg2+.
For data set [7], the system named is T5, SspI-HF Y98F (Sphaerotilus species).
T5 sequence: T3 sequence with Y98F
The settings on record: NEB4, 37 C, Mg2+.

For data set [8], the target named is T6, BamHI (Bacillus amyloliquefaciens) (UniProt P23940).
T6 sequence: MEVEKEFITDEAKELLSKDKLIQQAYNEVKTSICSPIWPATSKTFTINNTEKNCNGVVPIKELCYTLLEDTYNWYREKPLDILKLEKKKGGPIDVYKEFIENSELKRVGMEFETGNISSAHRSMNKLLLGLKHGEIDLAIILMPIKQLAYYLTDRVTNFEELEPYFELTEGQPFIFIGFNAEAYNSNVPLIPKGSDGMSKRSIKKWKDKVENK
The settings on record: NEB4, 37 C, Mg2+.

For data set [9], the target named is T7, HindIII (Haemophilus influenzae Rd) (UniProt P43870).
T7 sequence: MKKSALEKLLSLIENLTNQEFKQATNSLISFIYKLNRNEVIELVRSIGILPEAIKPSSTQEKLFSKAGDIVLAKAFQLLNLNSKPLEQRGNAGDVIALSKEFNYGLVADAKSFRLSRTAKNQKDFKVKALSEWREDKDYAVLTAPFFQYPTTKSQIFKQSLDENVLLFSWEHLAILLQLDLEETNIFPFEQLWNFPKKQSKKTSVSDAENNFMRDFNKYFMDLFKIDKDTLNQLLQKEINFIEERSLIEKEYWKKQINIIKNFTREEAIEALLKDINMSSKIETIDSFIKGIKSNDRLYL
As to conditions: NEB4, 37 C, Mg2+.

In data set [10] the test system is T8, BsmBI (Bacillus stearothermophilus).
T8 sequence: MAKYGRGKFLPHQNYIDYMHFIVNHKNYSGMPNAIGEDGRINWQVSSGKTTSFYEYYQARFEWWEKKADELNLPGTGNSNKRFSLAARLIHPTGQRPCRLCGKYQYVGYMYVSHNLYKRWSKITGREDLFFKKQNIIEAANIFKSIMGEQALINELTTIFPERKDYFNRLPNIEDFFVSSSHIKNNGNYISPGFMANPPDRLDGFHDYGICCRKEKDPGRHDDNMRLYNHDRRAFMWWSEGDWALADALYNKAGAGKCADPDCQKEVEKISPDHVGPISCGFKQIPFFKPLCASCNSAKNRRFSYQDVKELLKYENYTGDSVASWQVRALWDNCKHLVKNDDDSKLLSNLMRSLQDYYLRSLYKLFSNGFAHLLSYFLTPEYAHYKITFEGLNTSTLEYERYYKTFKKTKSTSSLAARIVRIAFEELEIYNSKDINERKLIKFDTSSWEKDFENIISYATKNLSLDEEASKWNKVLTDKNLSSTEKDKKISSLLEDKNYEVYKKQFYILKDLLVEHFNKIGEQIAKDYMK
The settings on record: NEB4, 55 C, Mg2+.

For the substance lambda DNA, the activity (fidelity index) in [1] was 8000; in [2], 8; in data set [3], 16; in data set [4], 8; in data set [5], 4; in data set [6] it was 4. Further, the activity (fidelity index) in data set [7] was found to be 500; in data set [8], 4; in [9] it was 32; in data set [10], 4.
